Results published in the nanobody polyreactivity screen of Harvey et al. (2022).

Assay: yeast display, Sf9 membrane polyspecificity reagent, FACS + sequencing; frameworks hold sequencing errors
Procedure, shortened: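 In a synthetic yeast display library (Saccharomyces cerevisiae BJ5465), nanobody expression was induced with galactose for 36–48 hours. FACS gates were set low and high (top ~1%) using anti-HA fluorescence for expression and streptavidin fluorescence for binding of the Sf9 membrane reagent. Each polyreactivity label is drawn from the gate of origin.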

Sequence	polyreactivity (PSR sort gate)
QVQLVESGGGLVQAGGSLRLSCAASGRTFRRYNMGWYRQAPGKERELVAAITTSGGSTYYSDSVKGRFTISRDNAKNTVYLQMNSLIPEDTAVYYCAATRRYSGDYWGQGTQVSVSS	high polyreactivity
QVQLVESGGGLVQAGGSLRLSCAASGRTFRRYTMGWYRQAPGKERELVATISKTGGSTYYADSVKGRFTISRDNAKNTVYLQMNSLKPEDTAVYYCAARSVALFIMYYWGQGTQVTVSS	high polyreactivity
QVQLVESGGGLVQAGGSLRLSCAASGRTFRRYVMGWYRQAPGKERELVAAIRWTGGSTYYADSVKGRFTISRDNAKNTVYLQMNSLKPEDTAVYYCAASSYIGYGYLGQGTQVTVSS	high polyreactivity
QVQLVESGGGLVQAGGSLRLSCAASGRTFRRYVMGWYRQAPGKERELVAAISYSGATTYYADSVKGRFTISRDNAKNTVYLQMNSLKPEDTAVYYCAATAPGDRYYWGQGTQVTVSS	high polyreactivity
QVQLVESGGGLVQAGGSLRLSCAASGRTFRSIAMGWYRKAPGKERELVAAITSSGGRTYYADSVKGRFTISRDNAKNTVYVQMNSLTPEDTAVYYCNAGRQHPPRYSSYDYWGQGTQVTVSS	high polyreactivity
QVQLVESGGGLVQAGGSLRLSCAASGRTFRSNAMGWYRQAPGKEREFVAAISSGGSTKYADSVKGRFTISRDNAKNTVYLQMNSLKPEDTAVYYCAAVSHSRYWGEGTQVTVSS	high polyreactivity
QVQLVESGGGLVQAGGSLRLSCAASGRTFRSNTMGWYRQAPGKEREFVAVITYSAGSTYYADSVKGRFTISRDNAKNTVYLQMNSLKPEDTAVYYCAATSKYRGDYWGQGTQVTVSS	high polyreactivity
QVQLVESGGGLVQAGGSLRLSCAASGRTFRSYAMGWYRQAPGKERELVAAISSGGSTNYADSVKGRFTISRDNAKNTVYLQMNSLKPEDTAVYYCNKVVHSFRFPYRYDMDYWGQGTQVTVSS	high polyreactivity
QVQLVESGGGLVQAGGSLRLSCAASGRTFRSYAMGWYRQAPGKERELVVAISLSGGSTYYADSVKGRFTISRDNAKNTVYLQMNSLKPVDTAVYYCNADLIKGTYRWYEGGSQYGYWGQGTQVTVSS	low polyreactivity
QVQLVESGGGLVQAGGSLRLSCAASGRTFRSYDMGWYRQAPGKERELVAAISEDGGYTYYADSVKGRFTISRDNAKNSVYLQMNSVKPEDTAVYYCAKDRPGPLRWWFLYGYWGQGTQVTVSS	low polyreactivity
QVQLVESGGGLVQAGGSLRLSCAASGRTFRTNAMGWYRQAPGKERELVAAITSDGTYYADSVKGRFTISRDNAKKTVYLQMNSLKPEDTAVYYCNVDDRETRDDYWGQGTQVTVSS	low polyreactivity
QVQLVESGGGLVQAGGSLRLSCAASGRTFRTNVMGGYIQAPGKERELVADISKRGGSTYYADSVKGRFTISRDNAMNTVYVQINSQKPDDTAVYYCAADYSPYYYHQGDYWGQGTQVTVSS	high polyreactivity
QVQLVESGGGLVQAGGSLRLSCAASGRTFRTNVMGWYRQAPGKERELVAAISKRGGSTYYADSVKGRFTISRDNAKYTVYLQMNILNPEDTAGYYCAAVFSPYYDHQGDYWGQGTQVTVSS	high polyreactivity
QVQLVESGGGLVQAGGSLRLSCAASGRTFRTYAMGWYRQAPGKERELVAAITSRAGSTYYADSVKGRFTISRDNAKNSVYLQMNSLKPEDTAVYYCAKQYYYGWYWGEDYWGQGTQVTVSS	low polyreactivity
QVQLVESGGGLVQAGGSLRLSCAASGRTFRVNAMGWYRQAPGKERELVASITYSGGSTYYADSVKGRFTISRDNAKNTVYLQMNSLKQEDTAVYYCAADWYRSPYDYWGQGTQVTVSS	low polyreactivity
QVQLVESGGGLVQAGGSLRLSCAASGRTFRVNTMGWYRQAPGQEWELVAAITSSDRTYYADSVKGRFTISRDNAKNTVYLQMNSLKPDDTAVYYCAAYSEYYGVYYWGQGTQVTVSS	low polyreactivity
